Data from article PMC6787036.

Target: human alpha-thrombin (Homo sapiens, UniProt P00734;P00734 328-363;364-622)
Assay: affinity chromatography (HPLC, aptamer monolith); 5 mM Mg2+, pH 8.0; eluted with 2 M NaClO4; 10 mM Tris HCl, 5 mM MgCl2 (varied 0-20 mM), pH 8.0 (varied 4-10), 0.3 mL/min, elution with 2 M NaClO4; temperature not stated

B1: TBA (15-mer thrombin binding aptamer) (structured_DNA)
DNA: GGTTGGTGTGGTTGG
modifications: 5' amino-C6 (5AmMC6), covalently immobilised on poly(EDMA-co-GMA) monolith by Schiff-base (EDA/glutaraldehyde)
- binding result: binds
